Patent US20140287471A1, “VARIANT CBH I POLYPEPTIDES WITH REDUCED PRODUCT INHIBITION” (BP CORPORATION NORTN AMERICA INC., priority 2011, published 2014)
Read-outs that look alike come from different tables or passages of the source.

What was measured:
[1] = 4-MUL cellobiose tolerance/inhibition assay, dose-response IC50 (Example 2); assay type: biochemical; settings: for synergy of double mutant (measured vs expected additive IC50) / 268_+411A Synergistic**↑: measured versus expected additive IC50
Summary of the method: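 IC50 reflects cellobiose concentration halving activity, fitted by four-parameter dose-response with zero activity fixed at knockout-strain background. Assays used 4-MUL (0.5 mM) with enzyme at 5 μg/mL or less, pH 6 MES, 25 mM gluconolactone blocking BG, cellobiose up to 100 mM; 4-MU fluorescence read.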

[2] = 4-MUL assay, specific activity (Example 2); assay type: biochemical; settings: for 268— +411 A Measured Specific Activity (SA) / 268— +411 A Δ SA* (change in specific activity; ratio of variant: WT): double mutant 268X+411A
Summary of the method: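 Specific activity derived from 4-MU standard curves and HPLC-quantified enzyme. Initial rates were taken over the first 15 min, with an endpoint read at 1 h (pH 10 carbonate quench), all at ex 365/em 450 nm. Conditions: 0.5 mM 4-MUL, 5 μg/mL enzyme, MES pH 6, 25 mM gluconolactone, cellobiose optional.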

[3] = double mutant 268A+411X, averaged IC50 from Tables 8-11, read-out: 268A+411— Measured (merged IC50)
[4] = double mutant 268A+411X, expected IC50 (additive values of single mutations), read-out: 268A+411— Expected IC50
[5] = double mutant 268X+411A, averaged IC50 from Tables 8-11, read-out: 268_+411A Measured (merged IC50)
[6] = double mutant 268X+411A, expected IC50 (additive values of single mutations)

Molecule | IC50 ([1]; 411 single substitution, averaged IC50 from Tables 8-11, read-out: 411— Measured (merged IC50)) | 411— Measured Specific Activity (SA) ([2]; 411 single substitution) | 411— Δ SA* (change in specific activity; ratio of variant: WT) ([2]; 411 single substitution) | IC50 [1, 3] | IC50 [1, 4] | synergy of double mutant (measured vs expected additive IC50) ([1]; double mutant 268A+411X) | 268A+411— Measured Specific Activity (SA) ([2]; double mutant 268A+411X) | 268A+411— Δ SA* (change in specific activity; ratio of variant: WT) ([2]; double mutant 268A+411X) | IC50 [1, 5] | 268 +411A Expected IC50 [1, 6] | 268_+411A Synergistic**↑ ([1]; double mutant 268X+411A) | 268— +411 A Measured Specific Activity (SA) [2] | 268— +411 A Δ SA* (change in specific activity; ratio of variant: WT) [2]
411Pro (protein, UniProt P62694 18-513, looked up, variant R411P) Exoglucanase 1: QSACTLQSETHPPLTWQKCSSGGTCTQQTGSVVIDANWRWTHATNSSTNCYDGNTWSSTLCPDNETCAKNCCLDGAAYASTYGVTTSGNSLSIGFVTQSAQKNVGARLYLMASDTTYQEFTLLGNEFSFDVDVSQLPCGLNGALYFVSMDADGGVSKYPTNTAGAKYGTGYCDSQCPRDLKFINGQANVEGWEPSSNNANTGIGGHGSCCSEMDIWEANSISEALTPHPCTTVGQEICEGDGCGGTYSDNRYGGTCDPDGCDWNPYRLGNTSFYGPGSSFTLDTTKKLTVVTQFETSGAINRYYVQNGVTFQQPNAELGSYSGNELNDDYCTAEEAEFGGSSFSDKGGLTQFKKATSGGMVLVMSLWDDYYANMLWLDSTYPTNETSSTPGAVPGSCSTSSGVPAQVESQSPNAKVTFSNIKFGPIGSTGNPSGGNPPGGNRGTTTTRRPATTTGSSPGPTQSHYGQCGGIGYSGPTVCASGTTCQVLNPYYSQCL | 1.13 mM | 0.70 μmol 4 MU/min/mg CBH I | 0.9 |  |  |  |  |  |  |  |  |  | 
268A+411Val (protein, UniProt P62694 18-513, looked up, variant R268A R411V) Exoglucanase 1: QSACTLQSETHPPLTWQKCSSGGTCTQQTGSVVIDANWRWTHATNSSTNCYDGNTWSSTLCPDNETCAKNCCLDGAAYASTYGVTTSGNSLSIGFVTQSAQKNVGARLYLMASDTTYQEFTLLGNEFSFDVDVSQLPCGLNGALYFVSMDADGGVSKYPTNTAGAKYGTGYCDSQCPRDLKFINGQANVEGWEPSSNNANTGIGGHGSCCSEMDIWEANSISEALTPHPCTTVGQEICEGDGCGGTYSDNAYGGTCDPDGCDWNPYRLGNTSFYGPGSSFTLDTTKKLTVVTQFETSGAINRYYVQNGVTFQQPNAELGSYSGNELNDDYCTAEEAEFGGSSFSDKGGLTQFKKATSGGMVLVMSLWDDYYANMLWLDSTYPTNETSSTPGAVVGSCSTSSGVPAQVESQSPNAKVTFSNIKFGPIGSTGNPSGGNPPGGNRGTTTTRRPATTTGSSPGPTQSHYGQCGGIGYSGPTVCASGTTCQVLNPYYSQCL |  |  |  | 14.8 mM | 3.73 mM | 4.0 | 1.78 μmol 4 MU/min/mg CBH I | 2.3 |  |  |  |  | 
268Val+411A (protein, UniProt P62694 18-513, looked up, variant R268V R411A) Exoglucanase 1: QSACTLQSETHPPLTWQKCSSGGTCTQQTGSVVIDANWRWTHATNSSTNCYDGNTWSSTLCPDNETCAKNCCLDGAAYASTYGVTTSGNSLSIGFVTQSAQKNVGARLYLMASDTTYQEFTLLGNEFSFDVDVSQLPCGLNGALYFVSMDADGGVSKYPTNTAGAKYGTGYCDSQCPRDLKFINGQANVEGWEPSSNNANTGIGGHGSCCSEMDIWEANSISEALTPHPCTTVGQEICEGDGCGGTYSDNVYGGTCDPDGCDWNPYRLGNTSFYGPGSSFTLDTTKKLTVVTQFETSGAINRYYVQNGVTFQQPNAELGSYSGNELNDDYCTAEEAEFGGSSFSDKGGLTQFKKATSGGMVLVMSLWDDYYANMLWLDSTYPTNETSSTPGAVAGSCSTSSGVPAQVESQSPNAKVTFSNIKFGPIGSTGNPSGGNPPGGNRGTTTTRRPATTTGSSPGPTQSHYGQCGGIGYSGPTVCASGTTCQVLNPYYSQCL |  |  |  |  |  |  |  |  | 9.49 mM | 1.57 mM | 6.0 | 1.43 μmol 4 MU/min/mg CBH I | 1.9
268Arg+411A (protein, UniProt P62694 18-513, looked up, variant R411A) Exoglucanase 1: QSACTLQSETHPPLTWQKCSSGGTCTQQTGSVVIDANWRWTHATNSSTNCYDGNTWSSTLCPDNETCAKNCCLDGAAYASTYGVTTSGNSLSIGFVTQSAQKNVGARLYLMASDTTYQEFTLLGNEFSFDVDVSQLPCGLNGALYFVSMDADGGVSKYPTNTAGAKYGTGYCDSQCPRDLKFINGQANVEGWEPSSNNANTGIGGHGSCCSEMDIWEANSISEALTPHPCTTVGQEICEGDGCGGTYSDNRYGGTCDPDGCDWNPYRLGNTSFYGPGSSFTLDTTKKLTVVTQFETSGAINRYYVQNGVTFQQPNAELGSYSGNELNDDYCTAEEAEFGGSSFSDKGGLTQFKKATSGGMVLVMSLWDDYYANMLWLDSTYPTNETSSTPGAVAGSCSTSSGVPAQVESQSPNAKVTFSNIKFGPIGSTGNPSGGNPPGGNRGTTTTRRPATTTGSSPGPTQSHYGQCGGIGYSGPTVCASGTTCQVLNPYYSQCL |  |  |  |  |  |  |  |  | 1.22 mM | 1.22 mM | 1.0 | 0.53 μmol 4 MU/min/mg CBH I | 0.7
268A+411Leu (protein, UniProt P62694 18-513, looked up, variant R268A R411L) Exoglucanase 1: QSACTLQSETHPPLTWQKCSSGGTCTQQTGSVVIDANWRWTHATNSSTNCYDGNTWSSTLCPDNETCAKNCCLDGAAYASTYGVTTSGNSLSIGFVTQSAQKNVGARLYLMASDTTYQEFTLLGNEFSFDVDVSQLPCGLNGALYFVSMDADGGVSKYPTNTAGAKYGTGYCDSQCPRDLKFINGQANVEGWEPSSNNANTGIGGHGSCCSEMDIWEANSISEALTPHPCTTVGQEICEGDGCGGTYSDNAYGGTCDPDGCDWNPYRLGNTSFYGPGSSFTLDTTKKLTVVTQFETSGAINRYYVQNGVTFQQPNAELGSYSGNELNDDYCTAEEAEFGGSSFSDKGGLTQFKKATSGGMVLVMSLWDDYYANMLWLDSTYPTNETSSTPGAVLGSCSTSSGVPAQVESQSPNAKVTFSNIKFGPIGSTGNPSGGNPPGGNRGTTTTRRPATTTGSSPGPTQSHYGQCGGIGYSGPTVCASGTTCQVLNPYYSQCL |  |  |  | 22.7 mM | 7.12 mM | 3.2 |  | 1.3 |  |  |  |  | 
268Glu+411A (protein, UniProt P62694 18-513, looked up, variant R268E R411A) Exoglucanase 1: QSACTLQSETHPPLTWQKCSSGGTCTQQTGSVVIDANWRWTHATNSSTNCYDGNTWSSTLCPDNETCAKNCCLDGAAYASTYGVTTSGNSLSIGFVTQSAQKNVGARLYLMASDTTYQEFTLLGNEFSFDVDVSQLPCGLNGALYFVSMDADGGVSKYPTNTAGAKYGTGYCDSQCPRDLKFINGQANVEGWEPSSNNANTGIGGHGSCCSEMDIWEANSISEALTPHPCTTVGQEICEGDGCGGTYSDNEYGGTCDPDGCDWNPYRLGNTSFYGPGSSFTLDTTKKLTVVTQFETSGAINRYYVQNGVTFQQPNAELGSYSGNELNDDYCTAEEAEFGGSSFSDKGGLTQFKKATSGGMVLVMSLWDDYYANMLWLDSTYPTNETSSTPGAVAGSCSTSSGVPAQVESQSPNAKVTFSNIKFGPIGSTGNPSGGNPPGGNRGTTTTRRPATTTGSSPGPTQSHYGQCGGIGYSGPTVCASGTTCQVLNPYYSQCL |  |  |  |  |  |  |  |  | 16.7 mM | 1.8 mM | 9.3 | 0.58 μmol 4 MU/min/mg CBH I | 0.8
268Phe+411A (protein, UniProt P62694 18-513, looked up, variant R268F R411A) Exoglucanase 1: QSACTLQSETHPPLTWQKCSSGGTCTQQTGSVVIDANWRWTHATNSSTNCYDGNTWSSTLCPDNETCAKNCCLDGAAYASTYGVTTSGNSLSIGFVTQSAQKNVGARLYLMASDTTYQEFTLLGNEFSFDVDVSQLPCGLNGALYFVSMDADGGVSKYPTNTAGAKYGTGYCDSQCPRDLKFINGQANVEGWEPSSNNANTGIGGHGSCCSEMDIWEANSISEALTPHPCTTVGQEICEGDGCGGTYSDNFYGGTCDPDGCDWNPYRLGNTSFYGPGSSFTLDTTKKLTVVTQFETSGAINRYYVQNGVTFQQPNAELGSYSGNELNDDYCTAEEAEFGGSSFSDKGGLTQFKKATSGGMVLVMSLWDDYYANMLWLDSTYPTNETSSTPGAVAGSCSTSSGVPAQVESQSPNAKVTFSNIKFGPIGSTGNPSGGNPPGGNRGTTTTRRPATTTGSSPGPTQSHYGQCGGIGYSGPTVCASGTTCQVLNPYYSQCL |  |  |  |  |  |  |  |  | 9.7 mM | 1.65 mM | 5.9 | 2.07 μmol 4 MU/min/mg CBH I | 2.7
268Trp+411A (protein, UniProt P62694 18-513, looked up, variant R268W R411A) Exoglucanase 1: QSACTLQSETHPPLTWQKCSSGGTCTQQTGSVVIDANWRWTHATNSSTNCYDGNTWSSTLCPDNETCAKNCCLDGAAYASTYGVTTSGNSLSIGFVTQSAQKNVGARLYLMASDTTYQEFTLLGNEFSFDVDVSQLPCGLNGALYFVSMDADGGVSKYPTNTAGAKYGTGYCDSQCPRDLKFINGQANVEGWEPSSNNANTGIGGHGSCCSEMDIWEANSISEALTPHPCTTVGQEICEGDGCGGTYSDNWYGGTCDPDGCDWNPYRLGNTSFYGPGSSFTLDTTKKLTVVTQFETSGAINRYYVQNGVTFQQPNAELGSYSGNELNDDYCTAEEAEFGGSSFSDKGGLTQFKKATSGGMVLVMSLWDDYYANMLWLDSTYPTNETSSTPGAVAGSCSTSSGVPAQVESQSPNAKVTFSNIKFGPIGSTGNPSGGNPPGGNRGTTTTRRPATTTGSSPGPTQSHYGQCGGIGYSGPTVCASGTTCQVLNPYYSQCL |  |  |  |  |  |  |  |  | 9.97 mM | 1.69 mM | 5.9 | 1.37 μmol 4 MU/min/mg CBH I | 1.8
